Data as given in the Human Domainome abundance scans (Beltran et al. 2025).

B1: COUP transcription factor 1, residues 83 to 159; numbered along this chain, P10589 (parent)
chain: HIECVVCGDKSSGKHYGQFTCEGCKSFFKRSVRRNLTYTCRANRNCPIDQHHRNQCQYCRLKKCLKVGMRREAVQRG

Variants of: B1
Test: abundance fitness (aPCA) (normalised: wild type 0, dead -1); higher = more abundant; growth selection in yeast, the domain comes from the species named
Conditions: Homo sapiens

Abundance fitness: each site, then its substitutions
N45: E -0.025, R 0.067, P 0.015, C -0.202, W -0.049, M -0.245, Q 0.13, S 0.061, V -0.058, Y -0.595, D -0.035, K -0.265, L -0.322, A -0.076, G -0.004, H -0.182
S26: T 0.139, W 0.014, V 0.088
R33: E 0.099, G -0.029, F -0.51, A 0.142, M -0.045, D 0.013, W 0.068, I 0.086, Q 0.272, L 0.109, P -0.771, C -0.698, T 0.096, K -0.022
T37: K 0.139, C -0.048, S -0.009, A 0.085, L -0.057, V 0.044, N 0.081, F -0.101, Y -0.254, Q -0.104, M -0.215, W 0.138, G 0.06, H 0.133, I -0.038, E 0.178, R 0.092
R44: F -0.207, T 0.054, E 0.082, M 0.057, V -0.292, I 0.038, A 0.077, N 0.11, C -0.153, K -0.071, W -0.07, D 0.084, P -0.405, S -0.024, Q -0.048, H -0.003, Y -0.432
C40: H -1.21, V -0.861, Y -0.704, R -0.864, G -0.731, D -0.51, S -1.08, Q -0.848, A -0.885, W -0.712, K -0.384, T -0.503, I -0.496, L -0.786, E -0.683, P -0.941
N43: P -0.256, S 0.011, T -0.051, V 0.128, Y -0.374, W 0.015, G 0.051, E 0.227, D 0.278, F -0.22, Q 0.027, A 0.152, R 0.012, H -0.319, L -0.054, M -0.222, K 0.018, I -0.335
R41: S 0.176, L 0.228, E 0.107, N 0.21, W 0.145, P 0.265, A 0.207, T -0.068, D 0.085, I 0.135, F -0.239, H 0.051, C 0.038, M 0.08, Y 0.088, K 0.301, G 0.188
F28: M -0.591, K -0.419, S -0.813, G -1.05, D -0.991, L -0.754, W -0.069, Q -0.809, R -0.698, P -1.04, Y -0.42, A -0.809, C -0.757, E -0.539, T -1.2, V -0.807
A42: Y 0.109, S 0.047, K 0.002, F -0.282, W -0.123, N -0.45, G 0.217, Q 0.239, L 0, R -0.111, T -0.256, H -0.068, V 0.09, E 0.084
F27: N -0.222, Y -0.61, S -0.815, I -0.86, A -0.812, E -0.519, Q -0.739, K -0.968, W -0.733, T -1.1, G -0.83, V -0.692, D -0.783, R -0.515, L -0.819, H -0.634
C46: W -0.779, S -0.604, D -0.572, K -0.624, F -0.501, M -0.654, P -0.587, I -0.267, Q -0.18, A -0.519, E -0.229, R -0.602, V -0.433, H -0.536, L -0.492
I48: A -0.366, D -0.302, F -0.11, E -0.23, C -0.25
T39: I -0.019, Q 0.04, C -0.244, F 0.23, S 0.113, D 0.12, W 0.057, G -0.099, E 0.191, M -0.126, N 0.103, K -0.083, R -0.108, A 0.17, P -0.359, V 0.013
V32: E -0.072, R -0.66, N -0.196, K -0.181, D -0.265, H 0.19, F -0.068, Y -0.062, G -0.378, S -0.336, P -0.393, I -0.089, A -0.151, Q -0.299, W -0.784, C -0.798, L -0.26, M 0.072
R34: V -0.137, L -0.161, W -0.25, Q 0.018, I 0.091, G 0.131, M -0.002, S -0.193, A 0.268, T -0.295, P -0.308, Y -0.263, C -0.759
P47: F -0.023, N -0.679, V -0.003, M -0.267, A -0.008, W -0.217, R -0.188, D -0.271, C -0.206, L -0.141, T -0.14, H -0.296, K -0.035, G -0.153, S -0.172, I -0.137
K29: T 0.026, W -0.149, M -0.055, N -0.01, F -0.147, C -0.705, E 0.103, P -0.534, A -0.079, L -0.186, I -0.22, S -0.058, R -0.181, D 0.153, G 0.068, H -0.048, V 0.013, Q 0.03
S31: R -0.955, L -0.571, I 0.014, G -0.598, C 0.075, Q 0.053, A 0.036, V -0.155, W -0.185, T -0.027, Y -0.169, E -0.336, K -0.688, H -0.176
N35: K 0.085, R -0.196, W -0.38, G -0.003, M -0.118, T -0.346, C 0.538, E 0.161, L -0.513, P -0.402, H -0.256, V -0.104, S -0.508
Y38: F -0.089, R -0.662, I -0.24, N -0.772, E -0.226, S -0.791, D -0.509, G -0.458, V -0.257, C -0.745, A -0.378, M -0.059, W -0.658, Q -0.464, P 0.094, K -0.831, T -0.669
L36: C -0.206, A -0.064, S -0.147, D -0.232, R -0.082, P 0.03, M -0.085, G -0.17, E 0.162, Q -0.113, H 0.095, K 0.126, V 0.007
R30: G -0.079, L -0.195, C 0.067, Y -0.186, A -0.091, S -0.157, K 0.389, V 0.08, E 0.054, N -0.028, Q -0.411, H -0.359
